Data as given in patent publication US20020058800A1.

Target: murine 103 gene product, transmembrane form, on the cell surface (murine) (UniProt P14719)
Experiment: flow cytometry; digoxigenin-labelled 3E10 with anti-Dig-PE against CD4-FITC, on CD4+ T cells cultured with IL-4 + anti-IL-12 (TH2 conditions). This is the middle of three panels, between 5.2 % (after primary restimulation) and 41 % (after tertiary restimulation). [C) TH2, middle panel]

Sequence of UniProt P14719 (P14719 24-567): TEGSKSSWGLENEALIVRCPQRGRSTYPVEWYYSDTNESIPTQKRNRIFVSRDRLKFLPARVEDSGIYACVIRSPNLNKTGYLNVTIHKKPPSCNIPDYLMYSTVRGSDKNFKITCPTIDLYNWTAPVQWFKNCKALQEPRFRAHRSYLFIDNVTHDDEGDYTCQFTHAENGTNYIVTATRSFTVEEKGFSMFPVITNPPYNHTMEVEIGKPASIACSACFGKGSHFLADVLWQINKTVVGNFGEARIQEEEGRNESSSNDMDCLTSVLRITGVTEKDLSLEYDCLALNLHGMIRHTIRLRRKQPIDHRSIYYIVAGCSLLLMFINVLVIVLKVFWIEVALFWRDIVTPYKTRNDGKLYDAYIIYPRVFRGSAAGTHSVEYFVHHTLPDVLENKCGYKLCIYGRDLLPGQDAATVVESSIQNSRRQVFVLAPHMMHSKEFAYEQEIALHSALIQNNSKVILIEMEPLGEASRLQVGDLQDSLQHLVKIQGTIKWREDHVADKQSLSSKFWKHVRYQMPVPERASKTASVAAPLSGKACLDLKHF

3E10 mAb (antibody)
% of cells in the upper right quadrant (3E10+ CD4+): 11.1%
